Assay results as given in patent US20240132615A1 (ICHNOS SCIENCES, published 2024).
Residue numbers refer to the chain shown, from its start.

B1: Anti-BCMA-D3-MP04-A2 FAB (Fab, V domains shown)
VH: EVQLVESGGGLIQPGGSLRLSCAASGFIFSHYEMNWVRQAPGKGLEWVSAIGQQGGNTVYADSVKGRFTISRDNSKNTLYLQMNSLRAEDTAVYYCARVPYSYSGYSGADIWGQGTLVTVSS
VL: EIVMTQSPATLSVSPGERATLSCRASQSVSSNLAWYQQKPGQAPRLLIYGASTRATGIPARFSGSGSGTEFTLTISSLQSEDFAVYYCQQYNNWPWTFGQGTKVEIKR
notes: Fab
B2: Anti-BCMA-D3-MP03-G7 FAB (Fab, V domains shown)
VH: B1 VH with A50I, Q54R, G56H, N57T, V59E
VL: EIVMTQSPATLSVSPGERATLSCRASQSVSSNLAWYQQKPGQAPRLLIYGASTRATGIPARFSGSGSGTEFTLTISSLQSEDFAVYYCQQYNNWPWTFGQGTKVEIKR
notes: Fab
B3: Anti-BCMA-D3-MP04-C2 FAB (Fab, V domains shown)
VH: B1 VH with Q54F
VL: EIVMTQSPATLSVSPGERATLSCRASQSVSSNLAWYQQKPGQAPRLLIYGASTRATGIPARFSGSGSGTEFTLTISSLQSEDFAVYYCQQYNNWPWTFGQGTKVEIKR
notes: Fab
B4: Anti-BCMA-D3-MP04-C8a FAB (Fab, V domains shown)
VH: B1 VH with Q54M, G56F, N57G, V59L, S63N
VL: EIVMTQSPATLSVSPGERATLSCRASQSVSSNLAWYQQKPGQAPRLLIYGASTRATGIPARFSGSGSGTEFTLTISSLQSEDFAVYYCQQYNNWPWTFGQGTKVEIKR
notes: Fab
B5: Anti-BCMA-D3-MP04-C8b FAB (Fab, V domains shown)
VH: B1 VH with Q54I, G56F, N57G, V59L, S63N
VL: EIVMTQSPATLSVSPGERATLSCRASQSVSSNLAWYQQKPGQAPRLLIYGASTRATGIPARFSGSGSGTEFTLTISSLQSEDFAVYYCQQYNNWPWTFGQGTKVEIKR
notes: Fab
B6: Anti-BCMA-D3-MP04-D4 FAB (Fab, V domains shown)
VH: B1 VH with Q54V
VL: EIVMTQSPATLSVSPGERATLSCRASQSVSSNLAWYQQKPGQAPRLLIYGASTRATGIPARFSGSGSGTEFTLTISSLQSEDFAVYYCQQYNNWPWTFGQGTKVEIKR
notes: Fab
B7: Anti-BCMA-D3-MP04-E11 FAB (Fab, V domains shown)
VH: B1 VH with Q54L
VL: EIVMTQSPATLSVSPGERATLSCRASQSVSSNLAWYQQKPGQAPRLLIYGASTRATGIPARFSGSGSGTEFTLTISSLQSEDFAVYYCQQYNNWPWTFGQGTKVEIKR
notes: Fab; also called anti-BCMA-D3-E11; D3-E11
B8: Anti-BCMA-D3-MP04-B11a FAB (Fab, V domains shown)
VH: EVQLVESGGGLIQPGGSLRLSCAASGFIFSHYEMNWVRQAPGKGLEWVSAIGQVDGEVYADSVKGRFTISRDNSKNTLYLQMNSLRAEDTAVYYCARVPYSYSGYSGADIWGQGTLVTVSS
VL: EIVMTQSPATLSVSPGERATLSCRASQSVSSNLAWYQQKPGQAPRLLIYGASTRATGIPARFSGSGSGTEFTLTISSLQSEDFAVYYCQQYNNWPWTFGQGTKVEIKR
notes: Fab
B9: Anti-BCMA-D3-MP04-B11b FAB (Fab, V domains shown)
VH: B8 VH with G56A
VL: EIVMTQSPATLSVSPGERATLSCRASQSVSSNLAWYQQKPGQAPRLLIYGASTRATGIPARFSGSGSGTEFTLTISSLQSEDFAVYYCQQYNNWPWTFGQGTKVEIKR
notes: Fab
B10: Anti-BCMA-D3-MP04-G7 FAB (Fab, V domains shown)
VH: B8 VH with V54R, E57T
VL: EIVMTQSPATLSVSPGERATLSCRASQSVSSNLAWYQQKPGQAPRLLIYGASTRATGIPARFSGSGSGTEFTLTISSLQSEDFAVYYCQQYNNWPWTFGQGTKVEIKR
notes: Fab
B11: Anti-BCMA-D3-MP04-F3 FAB (Fab, V domains shown)
VH: B8 VH with D55G, G56N, E57T
VL: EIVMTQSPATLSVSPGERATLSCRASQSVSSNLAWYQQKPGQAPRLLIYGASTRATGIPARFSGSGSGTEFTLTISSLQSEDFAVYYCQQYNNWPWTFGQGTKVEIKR
notes: Fab
B12: Anti-BCMA-D3-MP04-B11c FAB (Fab, V domains shown)
VH: B8 VH with D55E
VL: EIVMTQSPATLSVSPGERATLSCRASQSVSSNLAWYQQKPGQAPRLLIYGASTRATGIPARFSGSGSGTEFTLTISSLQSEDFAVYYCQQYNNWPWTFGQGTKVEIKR
notes: Fab
B13: Anti-BCMA-D3-MP05-F4 FAB (Fab, V domains shown)
VH: B8 VH with V54G, D55G, G56N, E57T, S103L, S106Q
VL: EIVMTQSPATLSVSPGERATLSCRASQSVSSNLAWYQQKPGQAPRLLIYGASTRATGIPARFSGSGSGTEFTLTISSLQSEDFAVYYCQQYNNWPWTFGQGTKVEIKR
notes: Fab
B14: Anti-CD3-C1-UCP01-E10 IgG1LALA (antibody, V domains shown)
VH: QVQLVQSGAEVKKPGSSVKVSCKASGGKFSRYAISWVRQAPGQGLEWMGGISPFEGTPAYAQKFQGRVTITADESTSTAYMELSSLRSEDTAVYYCARYGYSLYMDIWGQGTLVTVSS
VL: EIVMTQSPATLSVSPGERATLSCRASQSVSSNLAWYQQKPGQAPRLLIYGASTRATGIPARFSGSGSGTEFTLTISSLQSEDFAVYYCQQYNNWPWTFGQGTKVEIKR
notes: IgG1 LALA; also called anti-CD3-C1-E10
B15: Anti-CD3-C1-UCP01-E11 IgG1LALA (antibody, V domains shown)
VH: B14 VH with S52N, E55K, T57D, P58A, A59E
VL: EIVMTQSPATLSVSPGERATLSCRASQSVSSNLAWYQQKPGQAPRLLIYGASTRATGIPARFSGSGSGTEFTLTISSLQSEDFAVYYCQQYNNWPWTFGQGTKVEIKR
notes: IgG1 LALA
B16: Anti-CD3-C1-UCP01-E12 IgG1LALA (antibody, V domains shown)
VH: B14 VH with S52N, F54L, E55V, T57H, P58A, A59E
VL: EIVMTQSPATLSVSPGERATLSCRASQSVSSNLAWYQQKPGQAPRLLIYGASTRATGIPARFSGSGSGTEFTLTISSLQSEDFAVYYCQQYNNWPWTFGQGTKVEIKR
notes: IgG1 LALA; also called anti-CD3-C1-E12
B17: Anti-CD3-C1-UCP01-F1 IgG1LALA (antibody, V domains shown)
VH: B14 VH with S52N, F54R, E55L, T57Q, P58A, A59E
VL: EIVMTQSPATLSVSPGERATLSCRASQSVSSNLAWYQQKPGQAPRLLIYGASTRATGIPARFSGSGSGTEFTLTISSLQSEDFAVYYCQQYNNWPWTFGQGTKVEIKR
notes: IgG1 LALA
B18: Anti-CD3-C1-UCP01-F10 IgG1LALA (antibody, V domains shown)
VH: B14 VH with S52N, F54H, E55I, G56R, T57F, A59E
VL: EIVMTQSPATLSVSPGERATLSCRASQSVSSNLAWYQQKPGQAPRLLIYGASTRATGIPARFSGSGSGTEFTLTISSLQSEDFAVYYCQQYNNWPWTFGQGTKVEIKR
notes: IgG1 LALA; also called anti-CD3-C1-F10
B19: Anti-CD3-C1-UCP01-F12 IgG1LALA (antibody, V domains shown)
VH: B14 VH with E55R, T57H, P58A, A59E
VL: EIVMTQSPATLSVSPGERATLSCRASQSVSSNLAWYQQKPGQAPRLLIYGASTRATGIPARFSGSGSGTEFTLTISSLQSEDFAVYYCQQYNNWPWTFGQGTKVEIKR
notes: IgG1 LALA

Molecular target: T1, human BCMA on cells (NCI-H929, NCI-H929 CD38 KO, MOLP-8) (human, UniProt Q02223 1-184)
T1 construct: whole, on cells; endogenous BCMA of myeloma cell lines
T1 sequence (looked up): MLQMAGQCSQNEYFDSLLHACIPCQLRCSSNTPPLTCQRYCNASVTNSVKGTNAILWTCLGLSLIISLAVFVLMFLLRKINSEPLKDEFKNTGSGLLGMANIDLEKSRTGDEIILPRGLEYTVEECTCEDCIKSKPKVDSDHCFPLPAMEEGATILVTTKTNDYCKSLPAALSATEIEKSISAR
Assay: flow cytometry, NCI-H929 cells

B1 and B2 are the same in “Maximum binding (RFI)” value: 21500 RFI for the first, 21500 RFI for the second.

Going from B3 to B4, the “Maximum binding (RFI)” value rises from 24600 RFI to 26500 RFI.

First: B5
Second: B6
The “Maximum binding (RFI)” value of the first is higher: 28300 RFI for the first, 25300 RFI for the second.

First: B7
Second: B8
The “Maximum binding (RFI)” value of the first is higher: 31800 RFI for the first, 23700 RFI for the second.

Going from B9 to B10, the “Maximum binding (RFI)” value rises from 23300 RFI to 27000 RFI.

First: B11
Second: B12
The “Maximum binding (RFI)” value of the first is lower: 19500 RFI for the first, 22900 RFI for the second.

In the case of B13, the “Maximum binding (RFI)” value is reported as 29900 RFI.

Molecular target: T2, human CD3 on cells (HPB-ALL cells, primary human T cells) (human, UniProt P07766 23-207)
T2 construct: whole, on cells; only the epsilon chain is written
T2 sequence (P07766 23-207): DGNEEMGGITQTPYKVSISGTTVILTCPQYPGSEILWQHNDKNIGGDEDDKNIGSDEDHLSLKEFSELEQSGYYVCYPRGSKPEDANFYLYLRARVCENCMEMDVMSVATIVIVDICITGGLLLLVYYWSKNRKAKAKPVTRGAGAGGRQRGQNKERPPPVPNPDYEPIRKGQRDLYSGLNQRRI
Assay: flow cytometry, human CD4+ T cells

First: B14
Second: B15
The “MFI at 800 nM” value of the first is higher: 100000 MFI for the first, 91800 MFI for the second.

First: B16
Second: B17
The “MFI at 800 nM” value of the first is higher: 149000 MFI for the first, 81300 MFI for the second.

First: B18
Second: B19
The “MFI at 800 nM” value of the first is higher: 150000 MFI for the first, 108000 MFI for the second.

Molecular target: T3, recombinant human BCMA Fc fusion protein (Acrobiosystems BC7-H5254 / BCA-H5254) (human, UniProt Q02223 1-54)
T3 construct: also called recombinant BCMA-Fc protein; not shown: Fc of the bought fusion protein, not described
T3 sequence (looked up): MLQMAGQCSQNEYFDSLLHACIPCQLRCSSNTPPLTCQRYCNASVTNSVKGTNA
Assay: SPR, Fab as analyte, captured human BCMA-Fc

First: B1
Second: B2
The Kd of the first is 14-fold lower: 0.03 nM for the first, 0.41 nM for the second. The first binds more tightly here.

First: B3
Second: B4
The Kd of the first is 3-fold lower: 0.03 nM for the first, 0.09 nM for the second. The first binds more tightly here.

Going from B5 to B6, the Kd falls from 0.03 nM to 0.02 nM (1.5-fold).

First: B7
Second: B8
The Kd of the first is 14-fold lower: 0.01 nM for the first, 0.14 nM for the second.

Going from B9 to B10, the Kd falls from 0.52 nM to 0.08 nM (6.5-fold).

Going from B11 to B12, the Kd falls from 0.64 nM to 0.16 nM (4-fold). The second binds more tightly here.

With B13 the Kd was 0.78 nM.

Molecular target: T1, human BCMA on cells (NCI-H929, NCI-H929 …)
Assay: flow cytometry, NCI-H929 cells, one-site fit

Compared with B1, B2 is 3.8-fold higher in Kd: 7.68 nM for the first, 29.5 nM for the second.

First: B3
Second: B4
The Kd of the first is 1.8-fold higher: 6.49 nM for the first, 3.65 nM for the second. The second binds more tightly here.

B5 and B6 are within 1.5-fold of each other in Kd: 7.39 nM for the first, 8.84 nM for the second.

Compared with B7, B8 is 2.2-fold lower in Kd: 13.4 nM for the first, 6.03 nM for the second.

Compared with B9, B10 is 2.4-fold lower in Kd: 14.1 nM for the first, 5.82 nM for the second. The second binds more tightly here.

Going from B11 to B12, the Kd falls from 7.12 nM to 3.9 nM (1.8-fold). The second binds more tightly here.

In the case of B13, the Kd is reported as 11.8 nM.

Molecular target: T4, recombinant cynomolgus monkey BCMA Fc fusion protein (Acrobiosystems BCA-C5253) (cynomolgus monkey, UniProt A0A2K5UD97 1-53)
T4 construct: bought protein; not shown: Fc of the bought fusion protein, not described
T4 sequence (A0A2K5UD97 entry or part of it): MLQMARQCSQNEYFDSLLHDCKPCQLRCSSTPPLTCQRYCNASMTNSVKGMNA
Assay: SPR, Fab as analyte, captured cynomolgus BCMA-Fc

Compared with B1, B2 is 31-fold higher in Kd: 0.01 nM for the first, 0.31 nM for the second. The first binds more tightly here.

First: B3
Second: B4
The Kd of the first is 8.5-fold lower: 0.02 nM for the first, 0.17 nM for the second. The first binds more tightly here.

Compared with B5, B6 is 11-fold lower in Kd: 0.11 nM for the first, 0.01 nM for the second.

Going from B7 to B8, the Kd rises from 0.01 nM to 0.24 nM (24-fold). The first binds more tightly here.

First: B9
Second: B10
The Kd of the first is 5.6-fold higher: 0.79 nM for the first, 0.14 nM for the second. The second binds more tightly here.

Compared with B11, B12 is 8.9-fold lower in Kd: 3.03 nM for the first, 0.34 nM for the second.

For B13, the Kd was 2.83 nM.
